Laboratory results published in FireProtDB (doi:10.1110/ps.03176803).

B1: Guanyl-specific ribonuclease Sa, P05798 (parent)
chain: DVSGTVCLSALPPEATDTLNLIASDGPFPYSQDGVVFQNRESVLPTQSYGYYHEYTVITPGARTRGTRRIITGEATQEDYYTGDHYATFSLIDQTC

Variants of: B1
Conditions: Kitasatospora aureofaciens, Thermal, DSC, reversible: yes (90-95%), structure 1RGG, whole UniProt chain shown
[1] = pH 5.5, 55.6 °C, sodium acetate potassium chloride 0.01 M 0.05 M
[2] = pH 5.5, sodium acetate potassium chloride 0.01 M 0.05 M

Row | Variant | ddG of mutation (higher = less stable) [1] | Tm [2] | change of melting temperature, mutant - wild type (higher = more stable) [2] | unfolding enthalpy (calorimetric) [2] | unfolding enthalpy (van 't Hoff) [2] | ddG of mutation (higher = less stable) (pH 7, 49 °C, PIPES 0.03 M) | Tm (pH 7, PIPES 0.03 M) | change of melting temperature, mutant - wild type (higher = more stable) (pH 7, PIPES 0.03 M) | unfolding enthalpy (calorimetric) (pH 7, PIPES 0.03 M) | unfolding enthalpy (van 't Hoff) (pH 7, PIPES 0.03 M) | Tm (pH 7, PIPES 0.3 M) | change of melting temperature, mutant - wild type (higher = more stable) (pH 7, PIPES 0.3 M) | unfolding enthalpy (calorimetric) (pH 7, PIPES 0.3 M) | unfolding enthalpy (van 't Hoff) (pH 7, PIPES 0.3 M)
1 | H85Q | 0 kcal/mol | 55.5 °C | -0.1 °C | 94 kcal/mol | 105 kcal/mol | 0 kcal/mol | 49.1 °C | 0.1 °C | 90 kcal/mol | 89 kcal/mol | – | – | – | –
2 | E41K | 1.5 kcal/mol | 50.5 °C | -5.1 °C | 97 kcal/mol | 101 kcal/mol | 0.7 kcal/mol | 46.5 °C | -2.5 °C | 90 kcal/mol | 100 kcal/mol | – | – | – | –
3 | R65A | 1.3 kcal/mol | 51.1 °C | -4.5 °C | 81 kcal/mol | 78 kcal/mol | 1 kcal/mol | 45.6 °C | -3.4 °C | 81 kcal/mol | 90 kcal/mol | – | – | – | –
4 | E54Q | 2.3 kcal/mol | – | – | – | – | 1.7 kcal/mol | 43.1 °C | -5.9 °C | 81 kcal/mol | 87 kcal/mol | – | – | – | –
5 | Q38A | -0.4 kcal/mol | – | – | – | – | -1 kcal/mol | 52.5 °C | 3.5 °C | 109 kcal/mol | 110 kcal/mol | – | – | – | –
6 | E74K | -0.1 kcal/mol | 56 °C | 0.4 °C | 103 kcal/mol | 99 kcal/mol | -0.9 kcal/mol | – | – | – | – | 52.1 °C | 3.1 °C | 101 kcal/mol | 113 kcal/mol
